Source: the supplement of paper PMC9170038

System: MS2 coat protein
Test: apparent KD of MS2 coat protein; designed switch direction (-1 OFF switch, 1 ON switch): -1; higher = weaker reporter binding
Procedure, shortened: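 The reported apparent KD is a per-design median over clusters, from curve fits of normalised cluster fluorescence. Protein titrations used SNAP-549-labelled MS2 coat protein, doubled from 0.7 or 1.5 nM to 3 µM, in Tris-HCl pH 7.5 buffer with KCl, MgCl2, BSA, DTT, tRNA and Tween-20, with no input, 200 uM small-molecule ligand, or an oligonucleotide input. The RNA switches were transcribed on Illumina chips by stalled E. coli RNA polymerase.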

[1] = Eterna round: R95, input ligand: FMN 200 uM
[2] = Eterna round: R95, input ligand: microRNA oligo, concentration not stated
[3] = Eterna round: R95, input ligand: none
[4] = input ligand: microRNA oligo, concentration not stated

How did the “apparent KD of MS2 coat protein” value [1] turn out when “ACAAGCUUUUUGCUCGUCUUGUAGAAACGUGAGAGCGAGACAUGAGGAUCACCCAUGUAAAGGCAGUAGGUGGAGAU [JR_SV3TOV2_Sub026] (puzzle: Sensor v3, turn-off variant 2)” was run?
Its value is 36.9 nM.

And the “apparent KD of MS2 coat protein” value [2]?
The value was 64.4 nM.

And the “apparent KD of MS2 coat protein” value [3]?
The value was 58.2 nM.

How did the “apparent KD of MS2 coat protein” value (input ligand: FMN 200 uM) turn out when “ACAAGCUUUUUGCUCGUUUACAUGAGGAUCACCCAUGUGUCUUCACGCCCGGGCCCGGGCAAGCCCGGGCCCGGGCG [-47, -77, A 16%] (Eterna round: R97, puzzle: Sensor, turn-off variant 1)” was run?
Its value is 45.6 nM.

And the “apparent KD of MS2 coat protein” value (input ligand: none)?
Its value is 45 nM.

How did the “apparent KD of MS2 coat protein” value [1] turn out when “ACAAGCUUUUUGUUCGUCUUAUACACUCCUAAUAAGACAACAUGAGGAUCACCCAUGUAACAAACAAGAACUCAUGU [Sesor Array 6 - Jieux - Sensor v3, turn-off variant 2] (puzzle: Sensor v3, turn-off variant 2)” was run?
The value was 55.1 nM.

And the “apparent KD of MS2 coat protein” value [2]?
Its value is 359 nM.

What about the “apparent KD of MS2 coat protein” value [3] of the same sequence?
Its value is 72.5 nM.

How did the “apparent KD of MS2 coat protein” value [1] turn out when “ACAAGCUUUUUGUUCGUCUUAUACACUCCUAAUAAGACAACAUGAGGAUCACCCAUGUAACAAAGACGAACUCAUGU [Sesor Array 8 - Jieux - Sensor v3, turn-off variant 2] (puzzle: Sensor v3, turn-off variant 2)” was run?
Its value is 22.4 nM.

And the “apparent KD of MS2 coat protein” value [2]?
Its value is 257 nM.

And the “apparent KD of MS2 coat protein” value [3]?
Its value is 19.9 nM.

For “ACAAGCUUUUUGUUCGUCUUAUACACUCCUAAUAAGACAACAUGAGGAUCACCCAUGUAAGAAAUAAGAACUCAUGU [Sesor Array 4 - Jieux - Sensor v3, turn-off variant 2] (puzzle: Sensor v3, turn-off variant 2)”, which “apparent KD of MS2 coat protein” value [1] is on record?
Its value is 292 nM.

And the “apparent KD of MS2 coat protein” value [2]?
Its value is 595 nM.

And the “apparent KD of MS2 coat protein” value [3]?
Its value is 381 nM.

Which “apparent KD of MS2 coat protein” value (input ligand: FMN 200 uM) does the source give for “ACACAGCGAGGAUAUACAUGAGGAUCACCCAUGUGGUGGCAGUUACGGUAGGACUAGUGUAGAAGGUGCAGUGG [EX3 #29] (Eterna round: R97, puzzle: Exclusion 3)” here?
The value was 485 nM.

And the “apparent KD of MS2 coat protein” value (input ligand: none)?
The value was 800 nM.

How did the “apparent KD of MS2 coat protein” value (input ligand: FMN 200 uM) turn out when “ACACCUCACGUCAGGAUAUCUAUCUCGAGUGAGGAAGAGAAGGGACAUGAGGAUCACCCAUGUAUAGAAAGAAU [Usissodi] (Eterna round: R97, puzzle: Brourd's mod of Exclusion 4)” was run?
The value was 125 nM.

And the “apparent KD of MS2 coat protein” value (input ligand: none)?
The value was 27.2 nM.

With “ACAGGUUAAGGAUAUACAUGAGGAUCACCCAUGUCGAGUAUCUUGUCAUGCCGCCCAUGUAGAAGGUAACAUGG [Geale] (puzzle: Exclusion 3)” as the sequence, how does the “apparent KD of MS2 coat protein” value [2] read?
The value was 14.3 nM.

What does the source list for “ACAGUACAUGAGGAUCACCCAUGUGAGGAUAUAGUAGUAUGGGAGACCAUACUAAAGACUAGAAGGCGCGGGCA [Exclusion 1 S1] (Eterna round: R97, puzzle: Exclusion 1)”?
apparent KD of MS2 coat protein (input ligand: FMN 200 uM): 43.6 nM; apparent KD of MS2 coat protein (input ligand: none): 67 nM

“ACAGUGUUAGGAUAUCUGAGAAUUAGUCUCGACUAGUCGAAGGAGAAGGAACAUGAGGAUCACCCAUGUAGAUC [EX4 #76] (Eterna round: R97, puzzle: Exclusion 4)” was tested. Which “apparent KD of MS2 coat protein” value (input ligand: FMN 200 uM) did it give?
Its value is 295 nM.

What about the “apparent KD of MS2 coat protein” value (input ligand: none) of the same sequence?
Its value is 41.6 nM.

What does the source list for “ACAUGACUGCUAGGAUAUAGAUGACAUGAGGAUCACCCAUGUUGUCCCAUGUUGAUGGAAACCGACUAGAAGGAGCAGCAUAUG [Ex NG2 #11] (Eterna round: R96, puzzle: Exclusion NG 2)”?
apparent KD of MS2 coat protein (input ligand: FMN 200 uM): 47.4 nM; apparent KD of MS2 coat protein [4]: 22.9 nM; apparent KD of MS2 coat protein (input ligand: none): 35 nM

For “ACAUGAGGAUCACCCAUGUAAACAUAAUGGCUCAUGUAGAGUCAGGAUAUGCGUGGCGAACUCGCGCAGAAGGGACAAGACUGG [Deportation 23 - Jieux - Exclusion NG 3] (Eterna round: R96, puzzle: Exclusion NG 3)”, which “apparent KD of MS2 coat protein” value (input ligand: FMN 200 uM) is on record?
The value was 26.7 nM.

What about the “apparent KD of MS2 coat protein” value [4] of the same sequence?
Its value is 20.6 nM.

What about the “apparent KD of MS2 coat protein” value (input ligand: none) of the same sequence?
The value was 26.4 nM.

With “ACAUGAGGAUCACCCAUGUAAGGUUGGUUUUCUCCGGCUGUUGAGGAUAUAGUCCGGUAUCCGCGCUAGAAGGUGAGGGUUGGC [Aenatbe mod 10] (Eterna round: R96, puzzle: Exclusion NG 3)” as the sequence, how does the “apparent KD of MS2 coat protein” value (input ligand: FMN 200 uM) read?
Its value is 73 nM.

What about the “apparent KD of MS2 coat protein” value [4] of the same sequence?
Its value is 71.2 nM.

What about the “apparent KD of MS2 coat protein” value (input ligand: none) of the same sequence?
The value was 77.2 nM.

Which results are given for “ACAUGAGGAUCACCCAUGUACAGGGUGUAGUUUCAUUGUUUGAAGGAUAUACUUAGUUAGUUGUUGUAGAAGGUCAUAUUUCAU [JR_ExcNG3_Sub001] (Eterna round: R96, puzzle: Exclusion NG 3)”?
apparent KD of MS2 coat protein (input ligand: FMN 200 uM): 126 nM; apparent KD of MS2 coat protein [4]: 500 nM; apparent KD of MS2 coat protein (input ligand: none): 1040 nM

“ACAUGAGGAUCACCCAUGUACAGGGUUUAGCCUCAUUGUUUGAAGGAUAUACUCAGUUAGUUGUUGUAGAAGGUCACCUUUUAU [JR_ExcNG3_Sub003] (Eterna round: R96, puzzle: Exclusion NG 3)” was tested. Which “apparent KD of MS2 coat protein” value (input ligand: FMN 200 uM) did it give?
The value was 3450 nM.

What about the “apparent KD of MS2 coat protein” value [4] of the same sequence?
The value was 1730 nM.

What about the “apparent KD of MS2 coat protein” value (input ligand: none) of the same sequence?
The value was 1360 nM.

What does the source list for “ACAUGAGGAUCACCCAUGUACAGGGUUUAGUUUCAUCGUUUGAAGGAUAUACUCCGUUAGUUGUCGUAGAAGGUCACAUUUUGG [JR_ExcNG3_Sub006] (Eterna round: R96, puzzle: Exclusion NG 3)”?
apparent KD of MS2 coat protein (input ligand: FMN 200 uM): 189 nM; apparent KD of MS2 coat protein [4]: 120 nM; apparent KD of MS2 coat protein (input ligand: none): 145 nM
